Experimental data as given in IntAct's records for PubMed 25910212.

B1: ATP synthase mitochondrial F1 complex assembly factor 2 (Homo sapiens), Q8N5M1 (parent)
chain: MWRSCLRLRDGGRRLLNRPAGGPSASMSPGPTIPSPARAYAPPTERKRFYQNVSITQGEGGFEINLDHRKLKTPQAKLFTVPSEALAIAVATEWDSQQDTIKYYTMHLTTLCNTSLDNPTQRNKDQLIRAAVKFLDTDTICYRVEEPETLVELQRNEWDPIIEWAEKRYGVEISSSTSIMGPSIPAKTREVLVSHLASYNTWALQGIEFVAAQLKSMVLTLGLIDLRLTVEQAVLLSRLEEEYQIQKWGNIEWAHDYELQELRARTAAGTLFIHLCSESTTVKHKLLKE
partner: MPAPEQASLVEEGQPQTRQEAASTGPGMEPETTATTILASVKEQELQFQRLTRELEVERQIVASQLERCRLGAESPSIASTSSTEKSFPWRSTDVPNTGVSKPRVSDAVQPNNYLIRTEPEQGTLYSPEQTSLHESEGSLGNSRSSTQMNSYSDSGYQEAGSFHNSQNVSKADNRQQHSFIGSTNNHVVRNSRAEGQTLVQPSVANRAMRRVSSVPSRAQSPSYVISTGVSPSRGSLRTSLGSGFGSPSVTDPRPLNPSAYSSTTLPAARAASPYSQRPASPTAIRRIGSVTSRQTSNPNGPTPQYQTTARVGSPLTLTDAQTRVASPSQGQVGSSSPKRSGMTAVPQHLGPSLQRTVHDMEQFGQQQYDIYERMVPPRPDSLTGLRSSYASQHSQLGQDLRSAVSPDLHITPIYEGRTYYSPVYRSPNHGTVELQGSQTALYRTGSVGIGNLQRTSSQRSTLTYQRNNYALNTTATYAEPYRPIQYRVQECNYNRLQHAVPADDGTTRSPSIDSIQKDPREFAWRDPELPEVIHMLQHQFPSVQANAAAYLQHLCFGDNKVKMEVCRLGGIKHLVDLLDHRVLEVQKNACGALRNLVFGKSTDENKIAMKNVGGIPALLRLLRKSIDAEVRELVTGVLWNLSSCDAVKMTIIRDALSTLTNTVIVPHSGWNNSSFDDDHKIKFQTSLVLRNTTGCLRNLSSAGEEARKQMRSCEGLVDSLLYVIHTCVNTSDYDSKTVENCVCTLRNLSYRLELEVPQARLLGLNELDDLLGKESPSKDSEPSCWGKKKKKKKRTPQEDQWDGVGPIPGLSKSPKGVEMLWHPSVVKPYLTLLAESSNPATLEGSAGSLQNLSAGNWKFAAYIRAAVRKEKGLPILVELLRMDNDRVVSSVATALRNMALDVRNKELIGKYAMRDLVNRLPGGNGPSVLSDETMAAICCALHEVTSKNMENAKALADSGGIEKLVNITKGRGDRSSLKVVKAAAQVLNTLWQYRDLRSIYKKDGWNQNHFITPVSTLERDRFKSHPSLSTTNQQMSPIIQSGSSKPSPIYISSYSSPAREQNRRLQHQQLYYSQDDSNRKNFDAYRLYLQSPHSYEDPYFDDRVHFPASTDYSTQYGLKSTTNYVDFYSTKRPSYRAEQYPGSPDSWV
B2: Estrogen receptor beta (Homo sapiens), Q92731-3 (parent)
chain: MDIKNSPSSLNSPSSYNCSQSILPLEHGSIYIPSSYVDSHHEYPAMTFYSPAVMNYSIPSNVTNLEGGPGRQTTSPNVLWPTPGHLSPLVVHRQLSHLYAEPQKSPWCEARSLEHTLPVNRETLKRKVSGNRCASPVTGPGSKRDAHFCAVCSDYASGYHYGVWSCEGCKAFFKRSIQGHNDYICPATNQCTIDKNRRKSCQACRLRKCYEVGMVKCGSRRERCGYRLVRRQRSADEQLHCAGKAKRSGGHAPRVRELLLDALSPEQLVLTLLEAEPPHVLISRPSAPFTEASMMMSLTKLADKELVHMISWAKKIPGMRGNA
partner: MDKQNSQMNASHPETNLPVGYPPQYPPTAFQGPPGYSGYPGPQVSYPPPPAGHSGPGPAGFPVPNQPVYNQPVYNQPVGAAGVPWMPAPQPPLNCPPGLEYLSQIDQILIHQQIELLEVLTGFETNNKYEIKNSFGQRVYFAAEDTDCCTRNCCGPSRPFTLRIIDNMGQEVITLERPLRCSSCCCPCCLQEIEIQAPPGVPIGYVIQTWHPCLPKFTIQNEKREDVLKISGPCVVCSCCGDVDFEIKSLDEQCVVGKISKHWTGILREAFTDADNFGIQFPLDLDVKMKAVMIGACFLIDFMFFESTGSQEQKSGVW
B3: Caspase-10 (Homo sapiens), Q92851-4 (parent)
chain: MKSQGQHWYSSSDKNCKVSFREKLLIIDSNLGVQDVENLKFLCIGLVPNKKLEKSSSASDVFEHLLAEDLLSEEDPFFLAELLYIIRQKKLLQHLNCTKEEVERLLPTRQRVSLFRNLLYELSEGIDSENLKDMIFLLKDSLPKTEMTSLSFLAFLEKQGKIDEDNLTCLEDLCKTVVPKLLRNIEKYKREKAIQIVTPPVDKEAESYQGEEELVSQTDVKTFLEALPQESWQNKHAGSNGNRATNGAPSLVSRGMQGASANTLNSETSTKRAAVYRMNRNHRGLCVIVNNHSFTSLKDRQGTHKDAEILSHVFQWLGFTVHIHNNVTKVEMEMVLQKQKCNPAHADGDCFVFCILTHGRFGAVYSSDEALIPIREIMSHFTALQCPRLAEKPKLFFIQACQGEEIQPSVSIEADALNPEQAPTSLQDSIPAEADFLLGLATVPGYVSFRHVEEGSWYIQSLCNHLKKLVPRHEDILSILTAVNDDVSRRVDKQGTKKQMPQPAFTLRKKLVFPVPLDALSL
B4: Progranulin (Homo sapiens), P28799 (parent)
chain: MWTLVSWVALTAGLVAGTRCPDGQFCPVACCLDPGGASYSCCRPLLDKWPTTLSRHLGGPCQVDAHCSAGHSCIFTVSGTSSCCPFPEAVACGDGHHCCPRGFHCSADGRSCFQRSGNNSVGAIQCPDSQFECPDFSTCCVMVDGSWGCCPMPQASCCEDRVHCCPHGAFCDLVHTRCITPTGTHPLAKKLPAQRTNRAVALSSSVMCPDARSRCPDGSTCCELPSGKYGCCPMPNATCCSDHLHCCPQDTVCDLIQSKCLSKENATTDLLTKLPAHTVGDVKCDMEVSCPDGYTCCRLQSGAWGCCPFTQAVCCEDHIHCCPAGFTCDTQKGTCEQGPHQVPWMEKAPAHLSLPDPQALKRDVPCDNVSSCPSSDTCCQLTSGEWGCCPIPEAVCCSDHQHCCPQGYTCVAEGQCQRGSEIVAGLEKMPARRASLSHPRDIGCDQHTSCPVGQTCCPSLGGSWACCQLPHAVCCEDRQHCCPAGYTCNVKARSCEKEVVSAQPATFLARSPHVGVKDVECGEGHFCHDNQTCCRDNRQGWACCPYRQGVCCADRRHCCPAGFRCAARGTKCLRREAPRWDAPLRDPALRQLL
partner: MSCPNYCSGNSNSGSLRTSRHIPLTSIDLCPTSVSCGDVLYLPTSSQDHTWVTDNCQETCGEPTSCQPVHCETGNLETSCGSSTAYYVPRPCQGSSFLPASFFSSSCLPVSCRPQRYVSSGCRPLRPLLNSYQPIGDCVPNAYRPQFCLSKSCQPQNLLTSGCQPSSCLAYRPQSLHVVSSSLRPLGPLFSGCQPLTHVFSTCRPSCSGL
B5: TERF1-interacting nuclear factor 2 (Homo sapiens), Q9BSI4 (parent)
chain: MATPLVAGPAALRFAAAASWQVVRGRCVEHFPRVLEFLRSLRAVAPGLVRYRHHERLCMGLKAKVVVELILQGRPWAQVLKALNHHFPESGPIVRDPKATKQDLRKILEAQETFYQQVKQLSEAPVDLASKLQELEQEYGEPFLAAMEKLLFEYLCQLEKALPTPQAQQLQDVLSWMQPGVSITSSLAWRQYGVDMGWLLPECSVTDSVNLAEPMEQNPPQQQRLALHNPLPKAKPGTHLPQGPSSRTHPEPLAGRHFNLAPLGRRRVQSQWASTRGGHKERPTVMLFPFRNLGSPTQVISKPESKEEHAIYTADLAMGTRAASTGKSKSPCQTLGGRALKENPVDLPATEQKENCLDCYMDPLRLSLLPPRARKPVCPPSLCSSVITIGDLVLDSDEEENGQGEGKESLENYQKTKFDTLIPTLCEYLPPSGHGAIPVSSCDCRDSSRPL
B6: Pigment epithelium-derived factor (Homo sapiens), P36955 (parent)
chain: MQALVLLLCIGALLGHSSCQNPASPPEEGSPDPDSTGALVEEEDPFFKVPVNKLAAAVSNFGYDLYRVRSSTSPTTNVLLSPLSVATALSALSLGAEQRTESIIHRALYYDLISSPDIHGTYKELLDTVTAPQKNLKSASRIVFEKKLRIKSSFVAPLEKSYGTRPRVLTGNPRLDLQEINNWVQAQMKGKLARSTKEIPDEISILLLGVAHFKGQWVTKFDSRKTSLEDFYLDEERTVRVPMMSDPKAVLRYGLDSDLSCKIAQLPLTGSMSIIFFLPLKVTQNLTLIEESLTSEFIHDIDRELKTVQAVLTVPKLKLSYEGEVTKSLQEMKLQSLFDSPDFSKITGKPIKLTQVEHRAGFEWNEDGAGTTPSPGLQPAHLTFPLDYHLNQPFIFVLRDTDTGALLFIGKILDPRGP
partner: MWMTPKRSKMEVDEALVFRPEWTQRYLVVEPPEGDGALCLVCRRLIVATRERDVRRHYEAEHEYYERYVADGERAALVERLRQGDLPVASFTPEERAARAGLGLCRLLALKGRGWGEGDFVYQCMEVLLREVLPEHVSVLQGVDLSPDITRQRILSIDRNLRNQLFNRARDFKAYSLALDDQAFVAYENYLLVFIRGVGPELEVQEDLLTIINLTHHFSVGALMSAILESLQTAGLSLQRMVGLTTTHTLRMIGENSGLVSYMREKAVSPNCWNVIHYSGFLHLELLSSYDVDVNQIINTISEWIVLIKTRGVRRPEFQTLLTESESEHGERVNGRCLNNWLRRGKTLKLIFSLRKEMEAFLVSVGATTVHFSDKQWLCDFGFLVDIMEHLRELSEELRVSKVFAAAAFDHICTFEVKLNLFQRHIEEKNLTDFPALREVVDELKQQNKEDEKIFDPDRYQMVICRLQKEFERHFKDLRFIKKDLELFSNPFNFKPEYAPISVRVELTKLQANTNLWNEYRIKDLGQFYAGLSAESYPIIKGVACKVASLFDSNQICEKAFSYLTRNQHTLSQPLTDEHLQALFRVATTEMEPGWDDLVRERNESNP

Variants of: B1
Conditions: with PKP4, Q99569-2

Variant	effect of a mutation on the interaction
W94R	disrupting interaction strength

Variants of: B2
Conditions: with pls1_human PLSCR1, O15162

Variant	effect of a mutation on the interaction
F289L	with no effect

Variants of: B3
Conditions: with xiap_human XIAP

Variant	effect of a mutation on the interaction
P501L	disrupting interaction strength
V410I	disrupting interaction strength

Variants of: B4
Conditions: with kr261_human KRTAP26-1, Q6PEX3

Variant	effect of a mutation on the interaction
R432C	disrupting interaction strength
P248L	with no effect
P451L	with no effect
A9D	disrupting interaction strength

Variants of: B5
Conditions: with acd_human ACD

Variant	effect of a mutation on the interaction
G237D	with no effect
E281K	with no effect
P236S	disrupting interaction strength
S245Y	with no effect

Variants of: B6
Conditions: with epmip_human EPM2AIP1, Q7L775

Variant	effect of a mutation on the interaction
T72M	with no effect
